According to PMC3348462:

biological target: Glu148 (UniProt position 148, MVLGREGPTVQ); experiment: kinetics; settings: membrane-reconstituted, turning over in Cl-/36Cl- exchange (Cl- present)

Row | Substance | pKa
1 | CLC-ec1 E203Q (Escherichia coli; E203Q) | 6.2±0.5
2 | CLC-ec1 Y445L (Escherichia coli; Y445L) | 4.7±0.1
3 | CLC-ec1 (H+/Cl- exchange transporter ClcA), wild type (Escherichia coli) | 6.2±0.1
